Source: paper PMC5779224 (2017)

Experiments:
Assay in all cases: ITC
AnkB R6-24 = target: T1, AnkB R6-24 (Homo sapiens)
T1 chain: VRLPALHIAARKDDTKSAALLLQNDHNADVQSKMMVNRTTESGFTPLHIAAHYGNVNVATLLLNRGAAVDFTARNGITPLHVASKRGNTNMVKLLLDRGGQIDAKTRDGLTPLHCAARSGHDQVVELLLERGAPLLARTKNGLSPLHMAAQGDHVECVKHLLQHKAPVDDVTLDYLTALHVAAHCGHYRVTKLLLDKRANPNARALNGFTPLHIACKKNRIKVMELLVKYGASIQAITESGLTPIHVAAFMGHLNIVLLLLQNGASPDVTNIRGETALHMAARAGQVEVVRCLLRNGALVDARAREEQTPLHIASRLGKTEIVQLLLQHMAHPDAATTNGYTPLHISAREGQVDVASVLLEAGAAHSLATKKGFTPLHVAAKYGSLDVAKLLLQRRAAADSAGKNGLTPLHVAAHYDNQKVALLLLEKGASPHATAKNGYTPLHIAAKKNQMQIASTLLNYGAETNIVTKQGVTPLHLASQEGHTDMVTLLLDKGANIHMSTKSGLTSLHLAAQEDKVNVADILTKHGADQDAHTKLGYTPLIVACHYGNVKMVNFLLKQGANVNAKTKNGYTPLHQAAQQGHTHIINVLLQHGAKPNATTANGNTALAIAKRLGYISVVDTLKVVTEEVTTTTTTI

AnkB R1-14 = target: T2, AnkB R1-14 (Homo sapiens)
T2 chain: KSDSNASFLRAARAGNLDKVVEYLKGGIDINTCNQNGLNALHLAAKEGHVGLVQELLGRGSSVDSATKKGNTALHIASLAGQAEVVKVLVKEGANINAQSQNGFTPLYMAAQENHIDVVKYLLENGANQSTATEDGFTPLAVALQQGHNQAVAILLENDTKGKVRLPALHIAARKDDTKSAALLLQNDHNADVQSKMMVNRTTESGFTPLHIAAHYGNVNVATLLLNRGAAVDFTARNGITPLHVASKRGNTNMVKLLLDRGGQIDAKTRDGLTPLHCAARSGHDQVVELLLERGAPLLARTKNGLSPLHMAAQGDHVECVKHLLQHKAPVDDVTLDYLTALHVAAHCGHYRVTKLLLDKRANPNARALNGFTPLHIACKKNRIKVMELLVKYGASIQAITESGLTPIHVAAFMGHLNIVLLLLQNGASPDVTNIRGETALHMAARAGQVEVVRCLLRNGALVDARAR

[1] = target: T3, AnkB 28–873 (MBD + full AI-c) (human, UniProt Q01484-2 28-873)
T3 chain: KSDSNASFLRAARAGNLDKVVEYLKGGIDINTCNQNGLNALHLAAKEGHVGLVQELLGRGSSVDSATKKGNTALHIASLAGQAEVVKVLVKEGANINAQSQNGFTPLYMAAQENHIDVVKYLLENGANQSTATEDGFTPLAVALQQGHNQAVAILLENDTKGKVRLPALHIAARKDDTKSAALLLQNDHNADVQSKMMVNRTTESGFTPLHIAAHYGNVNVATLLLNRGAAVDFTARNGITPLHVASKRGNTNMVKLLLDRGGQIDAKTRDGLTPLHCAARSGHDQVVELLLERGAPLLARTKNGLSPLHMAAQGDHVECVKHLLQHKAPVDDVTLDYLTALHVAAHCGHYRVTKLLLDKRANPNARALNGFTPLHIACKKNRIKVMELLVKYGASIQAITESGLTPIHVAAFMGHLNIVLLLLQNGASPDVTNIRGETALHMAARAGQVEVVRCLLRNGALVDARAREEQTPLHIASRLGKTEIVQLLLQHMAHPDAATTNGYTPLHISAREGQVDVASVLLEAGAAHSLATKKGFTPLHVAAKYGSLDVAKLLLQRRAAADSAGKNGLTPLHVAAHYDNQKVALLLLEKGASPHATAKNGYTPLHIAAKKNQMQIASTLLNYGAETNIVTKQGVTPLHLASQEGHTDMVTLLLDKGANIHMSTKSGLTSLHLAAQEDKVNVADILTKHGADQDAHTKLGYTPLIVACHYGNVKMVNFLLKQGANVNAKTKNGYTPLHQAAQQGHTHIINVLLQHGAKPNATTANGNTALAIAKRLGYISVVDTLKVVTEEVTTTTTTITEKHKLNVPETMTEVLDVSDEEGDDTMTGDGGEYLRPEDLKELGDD

- Kd (AnkB R6-24): 4.7 µM
- Kd (AnkB R1-14): 4.1 µM
- Kd [1]: 2200 nM
B1: AnkB entire linker (aa 828–965) (domain or fragment)
chain: TEKHKLNVPETMTEVLDVSDEEGDDTMTGDGGEYLRPEDLKELGDDSLPSSQFLDGMNYLRYSLEGGRSDSLRSFSSDRSHTLSHASYLRDSAVMDDSVVIPSHQVSTLAKEAERNSYRLSWGTENLDNVALSSSPIH
